In article PMC10783490, “Biochemical and cellular insights into the Baz2B protein, a non-catalytic subunit of the chromatin remodeling complex” (Nucleic Acids Research, 2023):
Residue numbers refer to the chain shown, from its start.

B1: H3K14ac peptide (Ac-TARKSTGGK(ac)APRKQL-NH2) (peptide)
peptide: Ac-TARKSTGGK(Ac)APRKQL-NH2
notes: N-terminal tail of histone H3, residues 6-20; also called acetylated H3 tail peptide; acetylated at K14 (K14ac) N-terminal H3 histone tail peptide; source: synthetic peptide, bought: alta Bioscience

Experiments:
BRD^Baz2B L2073V = target: T1, BRD^Baz2B L2073V (human, UniProt Q9UIF8 2054-2168, L2073V, fluorescent label (Monolith NT Protein Labelling Kit RED-NHS)); test: MST; 100 nM fluorescently labelled (RED-NHS) BRD^Baz2B, peptide (H3 or H3K14ac) titrated; MST buffer 150 mM Tris-HCl, 50 mM NaCl, 10 mM MgCl2, pH 7.6, 0.0025% Pluronic, 200 ng/ul BSA; 25 C, 20% MST power; at least triplicate; details: both partners purified
T1 construct: bromodomain (BRD) of human Baz2B with a cancer-associated point mutation, made on pNIC28-Bsa4-BAZ2B-BRD; Same limits as m1; mutation found in pancreatic cancer (COSMIC/ICGC); source: E. coli BL21(DE3)-R3-pRARE2, purified (Ni-NTA, Sephadex 75)
T1 sequence: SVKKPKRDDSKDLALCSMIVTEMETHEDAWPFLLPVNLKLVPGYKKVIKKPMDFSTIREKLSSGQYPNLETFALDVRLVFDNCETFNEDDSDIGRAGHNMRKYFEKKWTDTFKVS

BRD^Baz2B F2139C = target: T2, BRD^Baz2B F2139C (human, UniProt Q9UIF8 2054-2168, F2139C, fluorescent label (Monolith NT Protein Labelling Kit RED-NHS)); test: as above; details: both partners purified
T2 construct: bromodomain (BRD) of human Baz2B with a cancer-associated point mutation, made on pNIC28-Bsa4-BAZ2B-BRD; Same limits as m1; mutation found in endometrial cancer; source: E. coli BL21(DE3)-R3-pRARE2, purified (Ni-NTA, Sephadex 75)
T2 sequence: T1 sequence with V20L, F86C

BRD^Baz2B L2127V = target: T3, BRD^Baz2B L2127V (human, UniProt Q9UIF8 2054-2168, L2127V, fluorescent label (Monolith NT Protein Labelling Kit RED-NHS)); test: as above; details: both partners purified
T3 construct: bromodomain (BRD) of human Baz2B with a cancer-associated point mutation, made on pNIC28-Bsa4-BAZ2B-BRD; Same limits as m1; mutation found in breast cancer; source: E. coli BL21(DE3)-R3-pRARE2, purified (Ni-NTA, Sephadex 75)
T3 sequence: T1 sequence with V20L, L74V

BRD^Baz2B D2143N = target: T4, BRD^Baz2B D2143N (human, UniProt Q9UIF8 2054-2168, D2143N, fluorescent label (Monolith NT Protein Labelling Kit RED-NHS)); test: as above; details: both partners purified
T4 construct: bromodomain (BRD) of human Baz2B with a cancer-associated point mutation, made on pNIC28-Bsa4-BAZ2B-BRD; Same limits as m1; mutation found in breast invasive carcinoma; source: E. coli BL21(DE3)-R3-pRARE2, purified (Ni-NTA, Sephadex 75)
T4 sequence: T1 sequence with V20L, D90N

BRD^Baz2B T2138I = target: T5, BRD^Baz2B T2138I (human, UniProt Q9UIF8 2054-2168, T2138I, fluorescent label (Monolith NT Protein Labelling Kit RED-NHS)); test: as above; details: both partners purified
T5 construct: bromodomain (BRD) of human Baz2B with a cancer-associated point mutation, made on pNIC28-Bsa4-BAZ2B-BRD; Same limits as m1; mutation found in multiple myeloma; source: E. coli BL21(DE3)-R3-pRARE2, purified (Ni-NTA, Sephadex 75)
T5 sequence: T1 sequence with V20L, T85I

[1] = target: T6, His6-BRD^Baz2B (bromodomain of human Baz2B, wild-type) (human, UniProt Q9UIF8 2054-2168, fluorescent label (Monolith NT Protein Labelling Kit RED-NHS)); test: as above; details: both partners purified
T6 construct: bromodomain (BRD) of human Baz2B, from plasmid pNIC28-Bsa4-BAZ2B-BRD; also called BAZ2B-BRD; source: E. coli BL21(DE3)-R3-pRARE2, purified (Ni-NTA, Sephadex 75)
T6 sequence: T1 sequence with V20L

BRD^Baz2B K2098N = target: T7, BRD^Baz2B K2098N (human, UniProt Q9UIF8 2054-2168, K2098N, fluorescent label (Monolith NT Protein Labelling Kit RED-NHS)); test: as above; details: both partners purified
T7 construct: bromodomain (BRD) of human Baz2B with a cancer-associated point mutation, made on pNIC28-Bsa4-BAZ2B-BRD; Same limits as m1; mutation found in multiple myeloma; source: E. coli BL21(DE3)-R3-pRARE2, purified (Ni-NTA, Sephadex 75)
T7 sequence: T1 sequence with V20L, K45N

TAM-AT1-AT2 Baz2B [2] = target: T8, TAM-AT1-AT2 Baz2B (Homo sapiens, UniProt Q9UIF8 721-884); test: EMSA; EMSA: 20 mM HEPES pH 7.5, 30 mM KCl, 1 mM EDTA, 10 mM (NH4)2SO4, 1 mM DTT, 4 C, 10 nM probe; MST: same plus 0.1 ug/ml BSA, 5 nM probe, 25 C; GST-AT-hook and bromodomain EMSA as in cited refs; details: protein: recombinant; tags: His6; label: 5' Cy5
T8 sequence: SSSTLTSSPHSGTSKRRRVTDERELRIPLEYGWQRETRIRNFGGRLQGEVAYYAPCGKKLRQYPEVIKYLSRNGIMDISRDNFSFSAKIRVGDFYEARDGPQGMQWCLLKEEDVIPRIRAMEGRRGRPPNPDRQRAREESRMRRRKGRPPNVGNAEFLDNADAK

TAM-AT1-AT2 Baz2B [3] = target: T8, TAM-AT1-AT2 Baz2B; test: MST; EMSA: 20 mM HEPES pH 7.5, 30 mM KCl, 1 mM EDTA, 10 mM (NH4)2SO4, 1 mM DTT, 4 C, 10 nM probe; MST: same plus 0.1 ug/ml BSA, 5 nM probe, 25 C; GST-AT-hook and bromodomain EMSA as in cited refs; details: protein: recombinant; tags: His6; label: 5' Cy5

| Binder | Kd (BRD^Baz2B L2073V) [µM] | Kd (BRD^Baz2B F2139C) [µM] | Kd (BRD^Baz2B L2127V) [µM] | Kd (BRD^Baz2B D2143N) [µM] | Kd (BRD^Baz2B T2138I) [µM] | Kd [1] [µM] | Kd (BRD^Baz2B K2098N) [µM] | Kd (TAM-AT1-AT2 Baz2B [2]) [µM] | Kd (TAM-AT1-AT2 Baz2B [3]) [µM] |
| --- | --- | --- | --- | --- | --- | --- | --- | --- | --- |
| B1 | 78 | 20 | 30 | 133 | 94 | 16 | 24 |  |  |
| GGGGGGUCAUUUUUGGGGAAACCCUGUCUCUUUCC (structured_RNA) [pRNAmini] |  |  |  |  |  |  |  | 0.137 | 0.288 |
